In PMC9496542 one finds pKa data, which are given here for 1 protein.

Holding throughout (assay): NMR
Holding throughout (settings): 298 K, 150 mM NaCl, 20 mM HEPES, 1 mM TCEP (working buffer), apo (no Ni(II)), intrinsically disordered, Cys394 reduced

The target of series [1] is His345 (UniProt position 345, …).
The target of series [2] is His355 (UniProt position 355, …).
The target of series [3] is His365 (UniProt position 365, …).
The target of series [4] is His371 (UniProt position 371, …).

B1: N-myc downstream-regulated gene 1 protein, C-terminal intrinsically disordered region (hNDRG1*C) (Homo sapiens) (protein)
chain: GMGYMPSASMTRLMRSRTASGSSVTSLDGTRSRSHTSEGTRSRSHTSEGTRSRSHTSEGAHLDITPNSGAAGNSAGPKSMEVSC
On to B1, for which the pKa (commonly the negative logarithm of the acid dissociation constant) in series [1] turned out to be 6.65; in series [2] it was 6.65; in series [3], 6.72; in series [4], 6.84.
